T1: Dcn1 potentiating neddylation (PONY) domain, Dcn1^P (budding yeast, UniProt Q12395 70-269)
T1 sequence (looked up): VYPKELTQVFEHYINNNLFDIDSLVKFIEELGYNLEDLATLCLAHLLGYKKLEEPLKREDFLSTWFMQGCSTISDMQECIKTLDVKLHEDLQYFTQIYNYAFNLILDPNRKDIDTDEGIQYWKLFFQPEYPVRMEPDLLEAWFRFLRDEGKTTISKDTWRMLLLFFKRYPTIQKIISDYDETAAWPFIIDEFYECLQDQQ

B1: isolated Cdc53 WHB subdomain (Cdc53^WHB) (domain or fragment, budding yeast, UniProt Q12018 730-815, looked up)
chain: NKRLTEDERIEKELNTERQIFLEACIVRIMKAKRNLPHTTLVNECIAQSHQRFNAKVSMVKRAIDSLIQKGYLQRGDDGESYAYLA
B2: full-length Dcn1 (natural protein, budding yeast, UniProt Q12395 1-269, looked up)
chain: MSNNKIKRKDASPEQEAIESFTSLTKCDPKVSRKYLQRNHWNINYALNDYYDKEIGTFTDEVSTVAHPPVYPKELTQVFEHYINNNLFDIDSLVKFIEELGYNLEDLATLCLAHLLGYKKLEEPLKREDFLSTWFMQGCSTISDMQECIKTLDVKLHEDLQYFTQIYNYAFNLILDPNRKDIDTDEGIQYWKLFFQPEYPVRMEPDLLEAWFRFLRDEGKTTISKDTWRMLLLFFKRYPTIQKIISDYDETAAWPFIIDEFYECLQDQQ
B3: Dcn1 potentiating neddylation (PONY) domain, Dcn1^P (domain or fragment)
chain: T1 sequence (looked up)

Common to all, as to assay: ITC
Experiment [1] deals with T1, Dcn1 potentiating neddylation (PONY) ….
Experiment [2] concerns the target Cdc53^C+-Hrt1 complex (budding yeast) (UniProt Q12018).
Experiment [3] addresses Cdc53^C+-Hrt1^ΔR complex (budding yeast).
Experiment [4] concerns the target B1.

This is an account of results in PMC3001161 (Molecular cell, 2010).

One may read the Kd as the constant that tells how readily two partners part at equilibrium. For orientation: stoichiometry N means a count of units in the complex or per binding partner.

As to B1, in experiment [1], the Kd amounted to 227 nM. As for B2, the stoichiometry N in experiment [2], in experiment [3] and in experiment [4] was 1 in each case. Molecule B3 registered a stoichiometry N in experiment [3] of 1.
